According to patent US20220298235A1 (AKESO BIOPHARMA, published 2022):

T1: human IL-23 (IL-23-His-Biotin) (human, UniProt Q9NPF7 20-189; P29460 23-328, biotin label, site not stated)
T1 construct: Akesobio lot 20161209; His-tagged and biotinylated
T1 sequence (looked up) 1: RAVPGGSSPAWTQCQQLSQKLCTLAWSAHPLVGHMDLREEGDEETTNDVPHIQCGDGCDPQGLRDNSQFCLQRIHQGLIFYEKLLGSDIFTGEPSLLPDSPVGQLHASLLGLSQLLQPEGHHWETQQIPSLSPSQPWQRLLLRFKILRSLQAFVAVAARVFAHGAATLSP
T1 sequence (looked up) 2: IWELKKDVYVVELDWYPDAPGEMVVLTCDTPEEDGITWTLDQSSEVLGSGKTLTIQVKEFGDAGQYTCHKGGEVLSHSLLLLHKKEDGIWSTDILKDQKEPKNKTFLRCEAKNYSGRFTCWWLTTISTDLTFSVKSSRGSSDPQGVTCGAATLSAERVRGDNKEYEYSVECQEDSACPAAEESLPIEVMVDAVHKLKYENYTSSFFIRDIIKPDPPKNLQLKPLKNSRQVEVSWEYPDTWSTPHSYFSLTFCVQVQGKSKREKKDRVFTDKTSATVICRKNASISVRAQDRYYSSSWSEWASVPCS

T2: Human IL12 (His Tag) (human, UniProt P29459 23-219; P29460 23-328)
T2 construct: Bought His-tagged heterodimer
T2 sequence (looked up) 1: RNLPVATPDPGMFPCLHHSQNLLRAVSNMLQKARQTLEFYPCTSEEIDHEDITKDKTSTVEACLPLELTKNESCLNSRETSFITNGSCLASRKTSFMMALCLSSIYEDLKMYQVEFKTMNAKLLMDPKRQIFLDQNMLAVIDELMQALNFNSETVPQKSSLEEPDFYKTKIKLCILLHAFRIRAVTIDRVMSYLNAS
T2 sequence (looked up) 2: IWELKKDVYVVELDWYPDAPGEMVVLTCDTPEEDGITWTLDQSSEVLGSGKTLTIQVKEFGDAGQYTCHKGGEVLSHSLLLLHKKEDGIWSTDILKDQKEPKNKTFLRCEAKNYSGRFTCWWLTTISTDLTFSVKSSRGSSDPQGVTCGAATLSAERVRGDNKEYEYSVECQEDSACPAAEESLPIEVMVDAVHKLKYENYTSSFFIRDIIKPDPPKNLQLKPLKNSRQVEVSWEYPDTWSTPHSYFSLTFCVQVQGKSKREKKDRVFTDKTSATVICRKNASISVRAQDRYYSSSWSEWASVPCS


Experiments:
[1] = molecular target: T1, human IL-23 (IL-23-His-Biotin); test: FACS competition, IL-23-His-Biotin 2 µg/mL on 293T-IL-12Rβ1&IL-23R cells; antibody 3.33 µg/mL
Protocol: (§1) 200 μL of 1% PBSA was added into each sample, and the mixture was centrifuged at 700×g for 5 min to discard the supernatant. According to experiment design, correspondingly diluted antibody (highest final concentration of 30 μg/mL, 3-fold dilution, 8 concentrations in total) and human IL-23 (IL-23-His-Biotin, Akesobio, 20161209) (final concentration of 2 μg/mL) were mixed at a ratio of 1:1, and a blank control was set. The mixture of antibody and human IL23 was incubated on ice for 30 min and then added to the cell precipitate at 100 μL/sample. The resulting mixture was well mixed and incubated on ice for 60 min. 200 μL of 1% PBSA was added, and the mixture was centrifuged at 700×g for 5 min to discard the supernatant, and then washed twice. FITC Steptavidin (Biolegend, Cat. No.: 405202) was diluted at a ratio of 1:500 and added to each tube at 100 μL. The mixture was well mixed and incubated on ice for 40 min in the absence of light. 200 μL of 1% PBSA was added, and the mixture was centrifuged at 700×g for 5 min to discard the supernatant, and then washed twice. 1% PBSA was added at 200 μL/tube, and the cells were resuspended and transferred to a flow cytometry tube for testing.

Human IL12 (His Tag) [2] = molecular target: T2, Human IL12 (His Tag); test: FACS competition, IL-12-His 20 nM on 293T-IL-12Rβ1&IL-23R cells; antibody 0.12 µg/mL
Protocol: (§2) 200 μL of 1% PBSA was added into each sample, and the mixture was centrifuged at 700×g for 5 min to discard the supernatant. According to experiment design, correspondingly diluted antibody (highest final concentration of 30 μg/mL, 3-fold dilution, 8 concentrations in total) and human IL-12 (Sino Biological, Cat. No.: CT-050-H08H-20) (final concentration of 20 nM) were mixed at a ratio of 1:1, and a blank control was set. The mixture of antibody and human IL12 was incubated on ice for 30 min and then added to the cell precipitate at 100 μL/sample. The resulting mixture was well mixed and incubated on ice for 60 min 200 μL of 1% PBSA was added, and the mixture was centrifuged at 700×g for 5 min to discard the supernatant, and then washed twice. Alexa Fluor® 488 anti-His tag antibody (Biolegend, Cat. No.: 652509) was diluted at a ratio of 1:400 and added to each tube at 100 μL. The mixture was well mixed and incubated on ice for 40 min in the absence of light. 200 μL of 1% PBSA was added, and the mixture was centrifuged at 700×g for 5 min to discard the supernatant, and then washed twice. 1% PBSA was added at 200 μL/tube, and the cells were resuspended and transferred to a flow cytometry tube for testing.

Human IL12 (His Tag) [3] = molecular target: T2, Human IL12 (His Tag); test: FACS competition, IL-12-His 20 nM on 293T-IL-12Rβ1&IL-23R cells; antibody 0.04 µg/mL
Protocol: as §2

Human IL12 (His Tag) [4] = molecular target: T2, Human IL12 (His Tag); test: FACS competition, IL-12-His 20 nM on 293T-IL-12Rβ1&IL-23R cells; antibody 0.01 µg/mL
Protocol: as §2

Human IL12 (His Tag) [5] = molecular target: T2, Human IL12 (His Tag); test: FACS competition, IL-12-His 20 nM on 293T-IL-12Rβ1&IL-23R cells; antibody 1.11 µg/mL
Protocol: as §2

[6] = molecular target: T1, human IL-23 (IL-23-His-Biotin); test: FACS competition, IL-23-His-Biotin 2 µg/mL on 293T-IL-12Rβ1&IL-23R cells
Protocol: as §1

Human IL12 (His Tag) [7] = molecular target: T2, Human IL12 (His Tag); test: FACS competition, IL-12-His 20 nM on 293T-IL-12Rβ1&IL-23R cells; antibody 0.37 µg/mL
Protocol: as §2

Human IL12 (His Tag) [8] = molecular target: T2, Human IL12 (His Tag); test: FACS competition, IL-12-His 20 nM on 293T-IL-12Rβ1&IL-23R cells; antibody 30 µg/mL
Protocol: as §2

Human IL12 (His Tag) [9] = molecular target: T2, Human IL12 (His Tag); test: FACS competition, IL-12-His 20 nM on 293T-IL-12Rβ1&IL-23R cells; antibody 10 µg/mL
Protocol: as §2

Binder | MFI [1] | MFI (Human IL12 (His Tag) [2]) | MFI (Human IL12 (His Tag) [3]) | MFI (Human IL12 (His Tag) [4]) | MFI (Human IL12 (His Tag) [5]) | EC50 [6] | MFI (Human IL12 (His Tag) [7]) | MFI (Human IL12 (His Tag) [8]) | MFI (Human IL12 (His Tag) [9])
H5L10 (antibody, human IgG1, kappa, V domains shown, human IgG1 / kappa constant regions; also called humanized antibody H5L10) VH: EVQLVQSGAEVKKPGESLKISCQSSGYSFTTYWIGWVRQMPGQGLEWIGIMSPVDSDIRYNPMFRGQVTMSVDKSSSTAYLQWSSLKASDTAMYYCARRRPGQGYFDFWGQGTMVTVSS VL: EIVLTQSPATLSASPGERATISCRASQSVGSWLAWYQQKPGQAPRSLIYAASNLQSGIPARFSGSGSGTDFTLTISSLEPEDFAVYYCQQYNIYPYTFGQGTRLEIKR | 15.7 MFI | 151 MFI | 154 MFI | 163 MFI | 44.6 MFI | 0.7 µg/mL | 87.5 MFI | 31.6 MFI | 34.1 MFI
H5L11 (antibody, human IgG1, kappa, V domains shown, human IgG1 / kappa constant regions; also called humanized antibody H5L11) VH: EVQLVQSGAEVKKPGESLKISCQSSGYSFTTYWIGWVRQMPGQGLEWIGIMSPVDSDIRYNPMFRGQVTMSVDKSSSTAYLQWSSLKASDTAMYYCARRRPGQGYFDFWGQGTMVTVSS VL: EIVLTQSPATLSASPGERATISCRASQSVSSWLAWYQQKPGQAPRSLIYSASNLQSGIPARFSGSGSGTDFTLTISSLEPEDFAVYYCQQYNIYPYTFGQGTRLEIKR | 20.2 MFI | 145 MFI | 151 MFI | 166 MFI | 54.3 MFI | 0.864 µg/mL | 103 MFI | 33 MFI | 33.9 MFI
H5L12 (antibody, human IgG1, kappa, V domains shown, human IgG1 / kappa constant regions; also called humanized antibody H5L12) VH: EVQLVQSGAEVKKPGESLKISCQSSGYSFTTYWIGWVRQMPGQGLEWIGIMSPVDSDIRYNPMFRGQVTMSVDKSSSTAYLQWSSLKASDTAMYYCARRRPGQGYFDFWGQGTMVTVSS VL: EIVLTQSPATLSASPGERATISCRASQSVSSWLAWYQQKPGQAPRSLIYAASNRQSGIPARFSGSGSGTDFTLTISSLEPEDFAVYYCQQYNIYPYTFGQGTRLEIKR | 15.8 MFI | 133 MFI | 149 MFI | 161 MFI | 38.5 MFI | 0.775 µg/mL | 86.6 MFI | 31.8 MFI | 32.4 MFI
H5L14 (antibody, human IgG1, kappa, V domains shown, human IgG1 / kappa constant regions; also called humanized antibody H5L14) VH: EVQLVQSGAEVKKPGESLKISCQSSGYSFTTYWIGWVRQMPGQGLEWIGIMSPVDSDIRYNPMFRGQVTMSVDKSSSTAYLQWSSLKASDTAMYYCARRRPGQGYFDFWGQGTMVTVSS VL: EIVLTQSPATLSASPGERATISCRASQSVSSWLAWYQQKPGQAPRSLIYAASNLQSGIPARFSGSGSGTDFTLTISSLEPEDFAVYYCQQYNIYPFTFGQGTRLEIKR | 23.6 MFI | 146 MFI | 155 MFI | 149 MFI | 66 MFI | 0.881 µg/mL | 113 MFI | 34.9 MFI | 46.3 MFI
ustekinumab (antibody, V domains shown) VH: EVQLVQSGAEVKKPGESLKISCKGSGYSFTTYWLGWVRQMPGKGLDWIGIMSPVDSDIRYSPSFQGQVTMSVDKSITTAYLQWNSLKASDTAMYYCARRRPGQGYFDFWGQGTLVTVSS VL: DIQMTQSPSSLSASVGDRVTITCRASQGISSWLAWYQQKPEKAPKSLIYAASSLQSGVPSRFSGSGSGTDFTLTISSLQPEDFATYYCQQYNIYPYTFGQGTKLEIK | 13.8 MFI | 137 MFI | 150 MFI | 160 MFI | 31.9 MFI | 1.16 µg/mL | 95.7 MFI | 28.7 MFI | 31 MFI
H5L9 (antibody, human IgG1, kappa, V domains shown, human IgG1 (P01857) / kappa (P01834) constant regions; also called humanized antibody H5L9) VH: EVQLVQSGAEVKKPGESLKISCQSSGYSFTTYWIGWVRQMPGQGLEWIGIMSPVDSDIRYNPMFRGQVTMSVDKSSSTAYLQWSSLKASDTAMYYCARRRPGQGYFDFWGQGTMVTVSS VL: DIQMTQSPSSLSASVGDRVTITCKASQNVGSWLAWYQQKPGKAPKSLIYSASSRQSGVPSRFSGSGSGTDFTLTISSLQPEDFATYYCQQYDIYPFTFGQGTKLEIKR | 153 MFI | 160 MFI | 158 MFI | 169 MFI | 157 MFI | 4.25 µg/mL | 159 MFI | 117 MFI | 134 MFI
